Earlier results, collected in paper PMC10178616.

Molecular target: AGR2 (Homo sapiens) (UniProt O95994)

Kd: 8.83 µM
Substance: AGR2 (from UniProt O95994)
